This passage reports Kd and binding signal (fold vs ssDNA) results from PMC11046454.

Data set [1] has as its system anti-FITC CAR (E2 scFv, CD8a hinge/TM, 4-1BB, CD3zeta) on CAR-J Jurkat or CAR-T cells (synthetic construct). In words: flow cytometry, CAR-J cells. As to conditions: via FITC; Cells 1e6/mL in DPBS, 1% FBS, 5 mM MgCl2, 4 C, 30 min; flow cytometry (pH 6.5 or 7.4 for i-motif; 1 mM ATP where stated). In general terms: Flow cytometry measures light scatter and fluorescence of single cells or particles in a stream.

The test system is the same in data set [2]. In words: flow cytometry, CAR-T cells. As to conditions: via FITC; Cells 1e6/mL in DPBS, 1% FBS, 5 mM MgCl2, 4 C, 30 min; flow cytometry (pH 6.5 or 7.4 for i-motif; 1 mM ATP where stated).

What is called Kd is the concentration at which binding is half-saturated. Higher therefore signals a looser complex. Take “TTTTTTTTTTTTTTTTTTTTTTTTTTTTTTTTTTTTTTTT [FITC-DNA-Cy5]”: in data set [1], the Kd came out at 26.4 nM. In other words, the double-digit nanomolar range.
Turning to “ACATTCCTAAGTCTGAAACATTACAGCTTGCTACACGAGAAGAGCCGCCATAGTA / TTTATCACCAGGCAGTTGACAGTGTAGCAAGCTGTAATAGATGCGAGGGTCCAATAC / TTTCAACTGCCTGGTGATAAAACGACACTACGTGGGAATCTACTATGGCGGCTCTTC / TTTTCAGACTTAGGAATGTGCTTCCCACGTAGTGTCGTTTGTATTGGACCCTCGCAT [FITC-TDN-Cy5]”, the binding signal (fold vs ssDNA) in data set [2] was 3.
